This data set addresses YadA (Yersinia adhesin A) displayed on E. coli BL21 DE3 cells (Yersinia enterocolitica) (UniProt P0C2W0). Put plainly: fluorescence cell-binding assay (eluted FAM-aptamer). The settings on record: 1.4 mM Mg2+; whole cells; authors say true Kd for pure YadA is probably higher; Kd: PBS 1x pH 7.4 (137 mM NaCl, 2.7 mM KCl, 8 mM Na2HPO4, 2 mM KH2PO4) + 1.4 mM MgCl2, 37 C, 75 min, 0-100 nM aptamer; sensor: inactivated cells in PBS 1x pH 7.
Sequence of UniProt P0C2W0 (P0C2W0 whole entry): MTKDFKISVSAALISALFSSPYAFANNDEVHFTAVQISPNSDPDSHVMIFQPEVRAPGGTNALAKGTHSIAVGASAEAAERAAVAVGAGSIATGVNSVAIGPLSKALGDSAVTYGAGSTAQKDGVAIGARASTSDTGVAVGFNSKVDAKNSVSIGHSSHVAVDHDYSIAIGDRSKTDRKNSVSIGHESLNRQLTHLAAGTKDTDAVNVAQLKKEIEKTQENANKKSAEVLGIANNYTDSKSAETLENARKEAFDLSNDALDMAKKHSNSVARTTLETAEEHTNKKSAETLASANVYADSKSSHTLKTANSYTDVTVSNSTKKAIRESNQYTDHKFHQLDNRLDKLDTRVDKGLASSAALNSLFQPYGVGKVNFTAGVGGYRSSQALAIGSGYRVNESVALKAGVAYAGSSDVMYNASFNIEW

The Kd is the constant that tells how readily two partners part at equilibrium. Regarding “ATCCAGAGTGACGCAGCATGACAGACGGGAGAGACACGACGGGGGCGGGGAGTGAGAAGCGCGCGCTGAATGTCGTTGGTGGCCC [Apt1 (FAM)]”, the dissociation constant (Kd) came to 11 nM.

The values are drawn from PMC9405658.
